B1: Fab S20 (Fab, V domains shown)
VH: LESGGGVVQPGRSLRLSCSASGFSFRDYAMHWVRQAPGKGLEWVAFIWFDGSNERYADSVKGRFTITRDNPKNTLYLQMNSLRVEDTAVYYCVRRGGSILTGFHLDYWGQGTLVTVSS
VL: ELTQSPSSLSASVGDRVTITCRASQGIRDDLGWYQQKPGKAPKRLIYAASNLQSGVPSRFSGGGSGTEFTLTISSLQPEDFATYYCLQHNSYPLTFGGGTKVEIKR
B2: Fab S8 HCDR3 mutant Arg95Asp (Fab, V domains shown)
VH: B1 VH with V7L, Q9K, R12G, S19A, S24T, R26S, D27S, R95D
VL: B1 VL
B3: Fab S20 HCDR3 mutant Arg95Asp (Fab, V domains shown)
VH: B1 VH with R95D
VL: B1 VL
notes: The text names only S2095K for S20
B4: Fab S8 HCDR3 mutant Arg95Pro (Fab, V domains shown)
VH: B1 VH with V7L, Q9K, R12G, S19A, S24T, R26S, D27S, R95P
VL: B1 VL
B5: Fab S20 HCDR3 mutant Arg95Pro (Fab, V domains shown)
VH: B1 VH with R95P
VL: B1 VL
notes: See note of m21
B6: Fab S8 HCDR3 mutant Arg95Gly (Fab, V domains shown)
VH: B1 VH with V7L, Q9K, R12G, S19A, S24T, R26S, D27S, R95G
VL: B1 VL
B7: Fab S8 (Fab, V domains shown)
VH: B1 VH with V7L, Q9K, R12G, S19A, S24T, R26S, D27S
VL: B1 VL
B8: Fab S20 HCDR3 mutant Arg95Gly (Fab, V domains shown)
VH: B1 VH with R95G
VL: B1 VL
notes: See note of m21

Test [1] concerns the target B7. Nature of the test: phage display panning on coated Fab S8, round 1, 12-mer library, 1 clone; clone not tested singly.
In test [2] the target is gp120 of HIV-1 MN strain (HIV-1 MN, UniProt P05877 32-513). Nature of the test: cell-based or functional assay.
Test [3] concerns the target T1, recombinant gp120 III-B (HIV-1 III-B, UniProt P04578 33-511).
T1 construct: domain: gp120; also called gp120 III-B (LAI); HIV-1 gp120
Nature of the test: ELISA on gp120 III-B. (ELISA stands for enzyme-linked immunosorbent assay.)
Procedure: Soluble Fabs from each resulting HC/LC pair were tested for binding to gp120 Ill-B and BSA in ELISA a s above. […] Soluble Fabs from each mutant were tested for binding to gp120 III-B and BSA in ELISA as above.

Test [4] deals with gp120 of HIV-1 RF strain (HIV-1 RF, UniProt P04579 32-519). Nature of the test: cell-based or functional assay.
Test [5] concerns the target gp120 of HIV-1 SF-2 strain (HIV-1 SF-2, UniProt P03378 32-509). Nature of the test: cell-based or functional assay.
The target in test [6] is B7. Nature of the test: phage display panning on coated Fab S8, round 3, 12-mer library, 1 clone; clone not tested singly.
The target of test [7] is B7. Nature of the test: phage display panning on coated Fab S8, round 2, 12-mer library, 1 clone; clone not tested singly.
The target in test [8] is B7. Nature of the test: phage display panning on coated Fab S8, round 4, 12-mer library, 1 clone; clone not tested singly.
Test [9] deals with B7. Nature of the test: phage display panning on coated Fab S8, round 4, 7-mer library Ph.D.-C7, 2 clones; clone not tested singly.

Substitutions are numbered along the chain they refer to. Numbers in names are those of the source. Where “and” joins values, the source holds several entries; their conditions need not be identical. Equal entries are not always repeated.

Consider QDRALITPLDQT [peptide of phage clone 1r4], for which, in test [1], the binding result is on record as “binds”.
Same read-out and setting: as for HDEFVWISIWEP [peptide of phage clone 1r5], the entry is “binds”.
Take B1: in test [2], the “% neutralisation, neutralisation plaque assay (NPA) in MT-4 cells” value was 90 % neutralisation at 20 µg/ml.
Regarding B2, the binding result in test [3] is reported as “no binding”.
B3: in [3], the binding result was “no binding”.
Same read-out and setting: as for B4, the entry is “no binding”; as for B5, “no binding”.
Same read-out and setting: for B6 the value was “no binding”.
On to B7, for which the “% neutralisation, infectivity reduction assay (IRA) in MT-2 cells” value in [4] is 50 % neutralisation at 1 µg/ml and > 90 % neutralisation at 10 µg/ml; in test [2], 50 % neutralisation at 1 µg/ml and > 90 % neutralisation at 10 µg/ml; in test [5], 50 % neutralisation at 1 µg/ml and > 90 % neutralisation at 10 µg/ml. Also, the “% neutralisation, neutralisation plaque assay (NPA) in MT-4 cells” value in [2] was 90 % neutralisation at 20 µg/ml.
As to B8, the binding result in test [3] was “no binding”.
With LPNATKLAPISP [peptide of phage clone 3r10], the binding result in [6] is on record as “binds”.
On the same count and under the same terms, for MQSQLYRDSPRG [peptide of phage clone 3r9] the value was “binds”; for KAPIPSSIPGFR [peptide of phage clone 3r4], “binds”.
The same measure, in the same setting: for QPTTPFFDWDTH [peptide of phage clone 3r6] the value was “binds”.
Regarding NYFQQPPERHSS [peptide of phage clone 2r10], in [7], the binding result is recorded as “binds”.
As for LFQKQIESPWRS [peptide of phage clone 1r10], the binding result in [1] is on record as “binds”.
On to SVSPNMRMLHWW [peptide of phage clone 2r7], for which the binding result in [7] is listed as “binds”.
With TAMNLGPALFRT [peptide of phage clone 4r3], the binding result in test [8] was “binds”.
For FYTPTMHSYGIQ [peptide of phage clone 2r6], in [7], the binding result is reported as “binds”.
Take QVMRMMPNGVYC [peptide of phage clone 1r3]: the binding result in test [1] was “binds”.
For SGLDGMHVNSPW [peptide of phage clone 1r1], the binding result in test [1] is “binds”.
Still for that read-out and setting: as for WTTNFADPPSST [peptide of phage clone 1r6], the entry is “binds”; as for FPASMPGLLLRV [peptide of phage clone 1r2], “binds”.
On to SAKPSYQPYAQP [peptide of phage clone 3r1], for which the binding result in [6] is listed as “binds”.
As for GTTQNAMSLARL [peptide of phage clone 3r5], the binding result in test [6] is recorded as “binds”.
Still for that read-out and setting: for HASTPSSPWSRP [peptide of phage clone 3r7] the value was “binds”.
On to SASTPSSPWSRP [peptide of phage clone 4r17], for which the binding result in test [8] is “binds”.
With HTKCSDASCPLI [peptide of phage clone 2r1], the binding result in test [7] is given as “binds”.
As to NFQTPDRTQSNL [peptide of phage clone 2r5], the binding result in [7] was “binds”.
On to SAMEAPP (also called 4c7) [peptide of phage clone c72R4], for which, in test [9], the binding result is listed as “binds”.
On to HTRVLPSTAMTL [peptide of phage clone 1r9], for which the binding result in test [1] was “binds”.
Take TMQPYKSWWSSK [peptide of phage clone 4r10]: the binding result in [8] is listed as “binds”.
On to MPNPRQNPPPPL [peptide of phage clone 2r4], for which the binding result in test [7] is “binds”.
Regarding TTGDHRAFWLGG [peptide of phage clone 2r9], the binding result in test [7] was “binds”.
SSCAAFWSKARP [peptide of phage clone 1r7]: in test [1], the binding result is on record as “binds”.
On to HGHPLKTNTHRS [peptide of phage clone 2r3], for which the binding result in [7] is listed as “binds”.
For the molecule WFKPPQTPLTLM [peptide of phage clone 4r5], the binding result in test [8] is “binds”.
Turning to HIETLLPAPELS [peptide of phage clone 3r3], in test [6], the binding result is on record as “binds”.
Take CLSSNSSPPPRP [peptide of phage clone 1r8]: the binding result in test [1] is reported as “binds”.
In the case of ADVMLHSKHVQM [peptide of phage clone 4r15], the binding result in test [8] was “binds”.
